Test: soluble fraction after stress (log2 fold change); higher = more stays soluble; pooled small domains, quantitative proteomics
Conditions: stress: 75 degC
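Note: 20 min heating vs room temperature control held 20 min.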

Row | Sequence | soluble fraction (log2)
1 | HMEVTENQEKHAYQEAMDQALRFLAPRFLSRAELTRKLLQKEHDRDVIDAVIDRLEELDYVDDAR | -0.013
2 | HMEVTLGLGSMVRLLGEPYLGSTGRVVELPDQAERFASGLTAKVAVVERHDGELIRVPVTNLLLME | -1.25
3 | HMEVTLTLKSFGTAKVAVIKAIQSITGLGLMDAKKLVDAAPSVIKEKISPSEAEQYKKTLVDAGAEVEI | -2.31
4 | HMEVVVPDFEKIYIRDLDKFVEGHNVRYEIVDSIYNLEKDKGTVVDQDPEPGSKVKHGRVIYLTVNAML | -0.231
5 | HMEVVVPEDLDAALQQASRAQSFFSSLSYTHKKEYVAWINEAKRAETRAMRIQKTITMLESGQRGH | -2.35
6 | HMEWEVHSVTVTPELSGERLDVAATALLSQFSRALVQRWIDANELTLNERPVKAKSKVRVGDLIAVKAK | -1.06
7 | HMEWLENIKKLKKEKGLTNESLSEKSGISVGTLNKLLSGATTDPKLSTLRPLADALEVSLDELLAI | -0.0723
8 | HMEWTDIPTHKVPNVVGKSVEEAKKKLSKFTIEYSGTGEKVVAQSPDAGEKLEEGGTVRLLL | -0.136
9 | HMEYEETMSQIKHNLNLLPRQQRVIIEMAKFDELTPAEIAKQLGISVQTVRNQLSTGLKKLRQLL | 0.0391
10 | HMEYKKKIGELLIDGNKKLKAANIDTYILDTQLLLGKVLGKDKLYLITNKDEEVSNFKEREFYSLIEKRI | 0.0872
11 | HMEYMKQRLYDIIELFKRSFSPSFSEEEKKKLENVLQDDFLRKAYEQLSDEVFIEEKFREFDGY | -2.88
12 | HMEYPNEIARIFNQIPELNVSAVARTLGINKSLLSSYIYGMKKPSPERTEEIKSAIRKIGQNMLAV | -0.927
13 | HMEYQSLVLDFLEQGDFNAEKLKDYQRAFAKQNGMQTLPSKSQILQAYFQLVEEKKINKNSDFELLLRKR | -0.32
14 | HMEYSNLGEALRRLSEIDLQIILLKYSHGFSIKEISKILDIKEVNLYKRNKRALNKLKKILAEMEVLSN | -0.34
15 | HMEYYDDEELDRFRGVEADAYDEDAVNEFRDVLYTLQEIEVAGWLRSLQLRAINLPDELKDEAFLI | -1.48
16 | HMEYYEDEELDRFRGRNSDQYSDAEIEEFNEILTTLRSEEVAGWIRSLQLREIALPDELKDDVILLVG | -0.903
17 | HMEYYIMPVANLHKVVVDGKDMSNLISNNAIAVKANVIDEGQIQIKPGEIIITTPAGVSPEEAVRSP | ≥ 1.04
18 | HMFANQLLLTRFDLNYIKSDVLSRQIDVLGIPIKKLTIEANNKSIWLQGTSQSLSKVRELIGIIDIRENA | -3.38
19 | HMFAQDKKFITYKVKEGETVQSISKALSITPYDLLKLNPDIKDNVSQDDLLIIPNKQYDPLGDI | 0.378
20 | HMFDENVKLIENEYDVSIISRGSELKVMGDVENVDKAARALRSMLAMINKGESLTEQNVRYVLTLVNEGNE | -0.735
21 | HMFDFLELGQAIQDAREKQRITREELAEELGISARHLQSVEKEGQYPSFRLFIQLVTMFHISVDQYI | -0.0535
22 | HMFDLATVKRVAEEAGMKFTIHPVELRAAHPNTAVLTLKSKAGRILVLKAASVGGGRIRVTEIDGVPAD | -0.335
23 | HMFDLDIEQIANDLKHGVMPNLYGLSLQDALYLLEAKGIRVKVAGSGSVVNQSIKTGAYVGSGSVLKLEL | -1.78
24 | HMFDLSQRQEQIIEIVRKHGPITGEKIADLLYVTRAALRPDLAILTMSGYLEAKPRVGYTYK | -1.64
25 | HMFDMLGDQIKKYRKEKKMSQEELAIPLNVVRQTVSKWENNLSVPDAELLIRLAEVLEISVAELLGT | -0.378
26 | HMFDTVFIVRKTSDKPLDGLRTYLNSIGDSLVIGEDDEAFKVHVHTNHPGKVLEEAITYGALQTVKIENMR | -1.07

Row | Sequence | soluble fraction (log2)
27 | HMFDTVTIGRKIAELRKAHNMTQFELADALGISFQAVSNWERGASMPDISKLPELAEIFGVTIDEVLGK | -1.5
28 | HMFEATGKITGTEVSFRRKPTTDSERILFFDINTEFRVIGINNGWYKGVYQGKTGYVRSDFVEIVGG | -2.05
29 | HMFEEPYLATYPVLIDPKLAFNVLDTMLEGLEVKMDQDEETGAISVLAPASIHTKITEYLDALSKQ | -0.0924
30 | HMFEERKKDWNLTGLLDDVIRRYIHQLTNDELNEINLEKSSGMPDEEIKNGIKLPLAVMQQRRETWGS | -0.252
31 | HMFEQRLRQAMKELRLKQVQVAGLTGKSRGAISQYLSGDRVPPDGVQREMAIALGLEADYFSR | -0.85
32 | HMFERFIFTDEVYIRLKKSGLPQTTLRPLLEIHGKSFDHNEINIILSGLIPNQDFERYAQIIKSHSRF | -4.24
33 | HMFEYDEIMEQSVPKIAWGSLLTIMKKASSHKEMLWYINETYKNGWSRSMVLNQIAMASYERSLIE | -0.732
34 | HMFFDKIIVDFLADGSRIDKYISTLYPDISRTHIQRLIAEQFILVNDSVVKSNYKLSTNDVVLIHIPEA | -3.01
35 | HMFFMTMGEKIQLLRKKQNWSQETLAEKLSVSRQAVSLWERDESQPELDKLLKLAKIFSVTTDYLIDDSVT | -3.19
36 | HMFGGIEFGWSQLPDGRVEYIIQLDDQAIAALKNGRSLTSSLPPEVQNADRIRIQYGAGPVEKGLLLQ | -0.206
37 | HMFIEMDEPEKILHRILNEANGKLELDKIGYRAEWPIGKVLTVLMSLELKGVVQSHPGKVYSL | -0.371
38 | HMFIGFLHQLKEAGVPVSIREYLDFLSGLDKGITNLNTNSFYHFARASLVKDERHYDRFDRTFSEFFEGAL | -3
39 | HMFIQLSQEEKKVVEGLQQRSKTHLDALALEVGQNISKTAAMLMELEMKGVVRALPGKYYEL | -1.1
40 | HMFKEVPVPDVKGMTLEEAKLALEKEGFILGKTEEAESTEVAAGKIISQNLEAGKIAKQGTSVNLVVSKGK | 0.454
41 | HMFKLPRTIGTFEDSDVVIGAGKFGPYIMHNKKFVSLPKSEDPLTIGLERAIELISAKREQEKQRH | 0.265
42 | HMFLPFFDNLRKAGVPVSLREFLGFLEGMKAGLATYDIDAFYFLARTTMVKDERNLDKFDRAFSATFKG | -1.02
43 | HMFNDGEIAIYTDPRGDAGETQIWKRGKGYYGQNDSFDFEAKDKKELEMKLKRWGYVLIAGSIDE | -0.435
44 | HMFNGDPTTRESILASARAEIDQYGIIGLRLSAVAEKAQVSVPLIYKYFEDRDGLLAVVLGDW | -1.21
45 | HMFNTWLGEIRSNTGANVRSGPDASAAIVDARPNETVVRVIGQSGNWLQIGDKQFVAQSLVAP | -0.0837
46 | HMFPDLTGDELRIVDLLNTANDLQVNIITAKTNLPISRVTSLLFQLEMKGVVKPLAGGMYHLLG | -1.49
47 | HMFPELDEEEQKITKLLQAQNDLPANIIAVKTALNIGTTQAKLFSLEMKGVVKPYAGGFYHLL | -2.73
48 | HMFPNLTNEEQQVMKVLAKTNDLQINMLSVQSNLPIARLTALLFSMEMKGVVKTLAGGVYHLL | -4.27
49 | HMFPNSFSEREKEVVDLLLQAKSNKQIAFSLGITNRTVEYHLGNIFAKLGVSSRSEAILTITNYKNQ | -2.35
50 | HMFPQVEVQLIYSYKSDRILNKMLKEFNVVILNQVFKDDILTSFHMNYSLVNQLITKIKSYPDISYKIIN | -1.82
51 | HMFPTLNEDEQTIVSALQKINDQPINTLSIHTALPIPRLTSLLFQLEIKGVIKQLAGGTYHVL | -2.84
52 | HMFQLSNEAKQQVLGELKRYESKQSAVLPALYIGQKDNKGHITPEVIRELSKVMDIPESQINEVFTFYTM | -0.287

Row | Sequence | soluble fraction (log2)
53 | HMFQRLPFSFANRYKMVLEYQHPERPPVLYYVEPLKAAAILEVSRVIKSGFTPQAIVSDEFEKKLTEAYQR | -2.76
54 | HMFRMTPQRMAILAEVQNAERHLTAAEIYERVRRKYPTIAYGTVYRTLHLLAKHGLIQEFPFGDNASLFDR | -0.159
55 | HMFRPRIEPGAKGSYVLEVQKRLAKLGYEHAGFDGVYGPGTERAIMQLQRDKGLPVTGIVDMRTYEALGLF | -0.99
56 | HMFRSTLEELKHQISGFLKANQSQEFTAQNLADGLRMTSIAEYKRVVNAMDALVRDGELTFDAGKYQYNPN | -0.234
57 | HMFSMKDFGQRLRQLRKERGLTQGDLARLAKIDIMQVSRYERGLGLPSLETAIALARVLETSTDLLFLG | -3.52
58 | HMFSPSDEDLELAHRQIRAFEEVEANGKSIAVVDGRIVESLHIVTARDTLEKAKAITALAEEM | 0.000997
59 | HMFSVVDKITLQEELKKLSKKEQLLIQLRYYDELNQEEIAKIFHVSQVQISRMEKKIIEKLKKQF | -3.44
60 | HMFTDEELEHIRSALIQAGIRLSKELGLQKMSVEKLTAAVGIAKGSFYMFFGSKEDFILEVAEYTGAQ | -0.976
61 | HMFTEEEMTKLRHELILAGIRLSRELGLQRMSVEKITSAVGIAKGSFYIFFDSKEDFILEIADHANRE | -1.1
62 | HMFTEEQMDWLRLIKDHIVASLSILPEDLELTPFDRKGGLLGFYDAFGDEYEKILQEMNEELVA | -0.567
63 | HMFTEIMAERNALIQAIQQNLPPQHIQSILSKKNKFRLEDLTNEELRDVWQWILNQRQAQQHQQQ | -0.0958
64 | HMFTGELESRVFELNYVDGLVASAALAGVLTDKGSATPIASRAGGENDMLLVVDRIASYSQIEKIITQLD | 0.0191
65 | HMFTKSNLEKLSNSELILKAIDSGNYSKIEFGGSEALNPDVPSYKKDLKNREELIEILSEMGM | 0.148
66 | HMFVNADEIAKGLSPFNPSSVAIEAGRLMLKRIGELLSAGVSFSVETTLSTRSYINLIQQAQNQGYSVSL | 0.822
67 | HMFVVVPDLIGKTINQFEEDLSELNLKYVVSDSGNFNPEFKINAVLDQSPKANSKVKDGRKIYLTLNAS | -0.434
68 | HMFWRKIDFYGLNLSTYRNIINIGSDYNYIYLDLGNIYKILNPITGKIIEEQDLVMNIDNINWSS | 0.283
69 | HMFYNDLINFDVFRDSRKIGKIENINSRLPQPVFEIMYDSRIVLIPIHEDFIRKIDKVNNIIYLDIPDGLL | -2.99
70 | HMGAAFITSSKDNAINIRQSANTDSKVIETVTNGQILESNEKSGEWHKVTYYDNDIKKSFTGYVHEGQLK | 0.0505
71 | HMGAAIEYGDRGNTVLQAQRLLIARGYMAGSADGIYGRQMEQAVKRFQKEQGLPESGVVDRRTLQVLIRSR | -1.63
72 | HMGAARRFEMSEGGSQKFWEVAVEGPALTVRFGKLGTAGTTQTKTLASAEAAAKEADKLVREKTKKGYAP | -0.199
73 | HMGAATQADIARVQELLNRLGYDAGSPDGLMGPRTRDAILEYQLTEGLETTGTVTRETLASLEARL | 0.0156
74 | HMGAGFREAIPPALDGERIDRVVSLLAYVSRNRAAGALAAGSVSVDGEVVFQRSRRVREGEELVVTGFERE | -1.01
75 | HMGAITGLQSRVAFLKGQGTITDAEAKTAMAFLPDPTDSKEVKIAKIGQAREYIMSLIENRA | -0.267
76 | HMGAIVTGTVVEIRSDVVIVNAGLKSEGVVPIEQFRNEAGELEVSVGDEVKVALDALEDGFGETRLS | -0.347
77 | HMGAIVTVPDLAGRPQPGAEAELRRSGLVPKVRTSYSLTGTRGTVISQTPPAGSRVREGAEVEVVVSRGLN | 0.00469

— the domain aggregation screens of Martell et al. (2025)
